Measured values as given in article PMC3742539, “ε Subunit of Bacillus subtilis F1-ATPase Relieves MgADP Inhibition” (PLoS ONE, 2013).

Target: T1, γ^S3C subunit of BF1 (Bacillus subtilis, UniProt P37810 1-287, S3C)
T1 construct: F1-ATPase γ subunit, Bacillus subtilis, with γSer3 to Cys; Stood in the assay as a subunit of the α3β3γ^S3C complex, never isolated alone; source: E. coli BL21(DE3), co-expressed with α and His6-β, purified as part of the α3β3γ^S3C complex
Test: cross-linking; disulfide cross-linking without ATP: α3β3γ^S3C and ε^133C mixed 1:10, excess ε removed by ultrafiltration (100-kDa cutoff), 50 µM CuCl2, 1 h, 25 °C, 50 mM Tris-H2SO4 pH 7.5, 50 mM K2SO4; non-reducing SDS-PAGE
Settings: both partners purified

binding result: binds
B1: mutant BF1 ε subunit (133C, a Cys introduced at the C-terminus) (natural protein, Bacillus subtilis, UniProt P37812 1-132, looked up)
chain: MKTVKVNIVTPDGPVYDADIEMVSVRAESGDLGILPGHIPTVAPLKIGAVRLKKDGQTEMVAVSGGFVEVRPDHVTILAQAAETAEGIDKERAEAARQRAQERLNSQSDDTDIRRAELALQRALNRLDVAGKC
